From US20150276749A1 (KONICA MINOLTA, published 2015) come the findings set out here.

Assay [1] deals with soluble-type human DSG3-mouse IgG2aFc fusion protein (human; mouse) (UniProt P32926). Briefly: sandwich ELISA, luminescence over blank; immobilized MAB1720, detection DF151; antigen 1 pg/mL.
For assay [2] the target is unchanged. Briefly: sandwich ELISA, luminescence over blank; immobilized MAB1720, detection DF151; antigen 40 pg/mL.
For assay [3] the target is unchanged. Briefly: sandwich ELISA, luminescence over blank; immobilized MAB1720, detection DF151; antigen 1000 pg/mL. On the technique in general: An ELISA detects its analyte on a solid surface through an enzyme-linked reagent.
Assay [4] shares this target. Kind of assay: SPFS sandwich; immobilized MAB1720, detection DF151; antigen 1,000 pg/mL (µg/mL in the source).
The target is the same in assay [5]. Kind of assay: sandwich ELISA, antigen in PBS(-); immobilized MAB1720, detection biotinylated DF366m.
Assay [6] shares this target. Kind of assay: sandwich ELISA, luminescence over blank; immobilized MAB1720, detection DF151; antigen 10 pg/mL.
For assay [7] the target is unchanged. Briefly: sandwich ELISA, antigen added to human serum; immobilized MAB1720, detection biotinylated DF151.
For assay [8] the target is unchanged. Kind of assay: sandwich ELISA, antigen in PBS(-); immobilized MAB1720, detection biotinylated D219-3.
Assay [9] shares this target. Kind of assay: sandwich ELISA, luminescence over blank; immobilized MAB1720, detection DF151; antigen 5000 pg/mL.
The target is the same in assay [10]. Briefly: sandwich ELISA, luminescence over blank; immobilized MAB1720, detection DF151; antigen 200 pg/mL.
Assay [11] shares this target. Briefly: sandwich ELISA, antigen in PBS(-); immobilized MAB1720, detection biotinylated MAB1720.
Assay [12] shares this target. Kind of assay: sandwich ELISA, antigen in PBS(-); immobilized MAB1720, detection biotinylated DF151.
For assay [13] the target is unchanged. Kind of assay: sandwich ELISA, luminescence over blank; immobilized MAB1720, detection DF151; antigen 25000 pg/mL.
The target of assay [14] is T1, soluble-type human DSG3-mouse IgG2aFc fusion protein (human; mouse, UniProt P32926 50-616).
T1 construct: also called human desmoglein 3; desmoglein 3 standard; not shown: mouse IgG2a Fc, printed 'mouse IgG2aFc' and 'mouse IgG2 constant region'
T1 sequence: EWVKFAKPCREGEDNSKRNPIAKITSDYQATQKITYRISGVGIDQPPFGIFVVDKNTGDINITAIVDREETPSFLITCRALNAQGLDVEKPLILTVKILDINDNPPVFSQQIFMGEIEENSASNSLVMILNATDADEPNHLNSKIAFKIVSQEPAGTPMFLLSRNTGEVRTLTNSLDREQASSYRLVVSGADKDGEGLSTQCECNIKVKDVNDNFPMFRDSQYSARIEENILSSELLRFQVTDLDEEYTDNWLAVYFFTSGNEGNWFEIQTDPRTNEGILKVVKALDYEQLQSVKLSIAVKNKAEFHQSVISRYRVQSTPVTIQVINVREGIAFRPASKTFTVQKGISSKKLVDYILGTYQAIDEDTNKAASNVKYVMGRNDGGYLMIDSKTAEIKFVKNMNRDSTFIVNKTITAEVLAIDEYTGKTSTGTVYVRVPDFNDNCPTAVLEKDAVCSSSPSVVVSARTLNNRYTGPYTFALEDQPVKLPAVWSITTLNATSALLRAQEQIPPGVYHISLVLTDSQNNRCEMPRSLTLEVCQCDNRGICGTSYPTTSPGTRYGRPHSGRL
Kind of assay: sandwich ELISA, luminescence over blank; immobilized DF366m, detection MAB1720; antigen 1000 pg/mL. How it is done: (§1) Subsequently, the antigen solutions having the above-described concentrations were each added to the plate in an amount of 50 μL/well, and the plate was incubated at room temperature for 1 hour. Then, the antigen solution was removed, and the plate was washed with 0.05% Tween 20-PBS three times. Thereafter, the 1-μg/mL biotinylated antibody solution was added in an amount of 50 μL/well, and the plate was incubated at room temperature for 1 hour.
(§2) Then, after removing the streptavidin-HRP solution and washing the plate with 0.05% Tween 20-PBS three times, a substrate solution (SuperSignal ELISA Femto Maximum Sensitivity Substrate (registered trademark); Pierce Biotechnology, Inc.) was added in an amount of 100 μL/well. One minute thereafter, the luminescence intensity was measured using a luminometer, Fluoroskan Ascent FL (trade name, Thermo Electron Corporation).
(§3) The numerical values shown in Table 1 represent the minimum values of the antigen solution concentration having an S/N ratio of higher than 2 (hereinafter, referred to as “detection limit concentration”) and the unit of the numerical values is pg/mL. The S/N ratio was determined by dividing the luminescence intensity at the respective antigen solution concentrations ([…]) by the luminescence intensity of an antigen-free blank antigen solution (0 μg/mL).

Assay [15] deals with T1, soluble-type human DSG3-mouse IgG2aFc …. Briefly: sandwich ELISA, luminescence over blank; immobilized DF366m, detection DF151; antigen 10 pg/mL. The procedure:
as §1, §2
(§4) The numerical values shown in Table 1 represent the minimum values of the antigen solution concentration having an S/N ratio of higher than 2 (hereinafter, referred to as “detection limit concentration”) and the unit of the numerical values is pg/mL. […]

Assay [16] shares this target. Briefly: sandwich ELISA, luminescence over blank; immobilized DF366m, detection DF151; antigen 40 pg/mL. How it is done: as §1, §2, §3
The target is the same in assay [17]. Kind of assay: sandwich ELISA, luminescence over blank; immobilized DF366m, detection MAB1720; antigen 40 pg/mL. The procedure: as §1, §2, §3
Assay [18] shares this target. Briefly: sandwich ELISA, luminescence over blank; immobilized DF366m, detection MAB1720; antigen 5000 pg/mL. How it is done:
as §1, §2, §3

The target is the same in assay [19]. Briefly: SPFS sandwich; immobilized DF366 (so in the source), detection MAB1720; antigen 1,000 pg/mL (µg/mL in the source). The procedure:
(§5) Once again, a Tris-buffered saline (TBS) containing 0.05% by mass of Tween 20 was fed and circulated in the flow path for 10 minutes to wash the flow path. Then, with the flow path being filled with PBS buffer (pH 7.4), the assay area was irradiated with laser light (640 nm, 40 μW) from the back side of the metal thin films, and the fluorescence intensity was measured using a photomultiplier tube (PMT) arranged above the assay area. The thus measured value was defined as “signal” (S) at a desmoglein 3 concentration of 100 μg/mL.
(§6) Further, the fluorescence intensity was measured by the same procedures as described above, except that the desmoglein 3 concentration of the fed PBS solution was changed to 10,000 μg/mL, 5,000 μg/mL, 1,000 μg/mL, 200 μg/mL, 50 μg/mL, 10 μg/mL, 3.16 μg/mL, 1 μg/mL, 0.316 μg/mL, 0.1 μg/mL and 0.031 μg/mL. The thus measured values were each defined as “signal” (S) at the respective concentrations.
In addition, when the antibody combination was variously changed in the same manner as in Example 1, it was confirmed that plots similar to the one shown in FIG. 6 can be obtained.

Assay [20] has the same target. Kind of assay: sandwich ELISA, luminescence over blank; immobilized DF366m, detection DF151; antigen 1000 pg/mL. How it is done: as §1, §2, §3
Assay [21] shares this target. Briefly: sandwich ELISA, luminescence over blank; immobilized DF366m, detection DF151; antigen 1 pg/mL. The procedure: as §1, §2, §4
The target is the same in assay [22]. Briefly: sandwich ELISA, luminescence over blank; immobilized DF366m, detection DF151; antigen 25000 pg/mL. How it is done:
as §1, §2, §3

Assay [23] has the same target. Briefly: sandwich ELISA, luminescence over blank; immobilized DF366m, detection MAB1720; antigen 25000 pg/mL. The procedure: as §1, §2, §3
Assay [24] has the same target. Kind of assay: sandwich ELISA, luminescence over blank; immobilized DF366m, detection MAB1720; antigen 1 pg/mL. The procedure: as §1, §2, §3
The target is the same in assay [25]. Kind of assay: sandwich ELISA, luminescence over blank; immobilized DF366m, detection DF151; antigen 200 pg/mL. The procedure:
as §1, §2, §3

The target is the same in assay [26]. Briefly: sandwich ELISA, luminescence over blank; immobilized DF366m, detection MAB1720; antigen 200 pg/mL. The procedure: as §1, §2, §3
For assay [27] the target is unchanged. Kind of assay: SPFS sandwich; immobilized DF366m, detection DF151; antigen 1,000 pg/mL (µg/mL in the source). The procedure: as §5
On another front, the fluorescence intensity was also measured by the same procedures as described above, except that a PBS solution containing no desmoglein 3 (0 μg/mL) was fed in place of the PBS solution containing 100 μg/mL of desmoglein 3. The thus measured value was defined as “noise” (N).
as §6

Assay [28] shares this target. Briefly: sandwich ELISA, luminescence over blank; immobilized DF366m, detection DF151; antigen 5000 pg/mL. How it is done: as §1, §2, §3
Assay [29] has the same target. Briefly: sandwich ELISA, luminescence over blank; immobilized DF366m, detection MAB1720; antigen 10 pg/mL. The procedure: as §1, §2, §4

Consider “MAB1720 antibody (R&D Systems, Inc., Catalog No.: MAB1720)”, for which the S/N ratio is 0.9 in assay [1]; 1 in [2]; 2.8 in assay [3]; 34.5 in assay [4]; 1.1 in [6]; 11.4 in assay [9]. Further, the S/N ratio was 1.3 in assay [10] and 53 in assay [13]. Moreover, the detection limit concentration (lowest antigen concentration with S/N > 2) stood at 5000 pg/mL in [5], 5000 pg/mL in assay [8], 5000 pg/mL in assay [11] and 1000 pg/mL in assay [12]. The same molecule returned a detection limit concentration in assay [7] of 1000 pg/mL.

B1: DF366m (DF366m[I] antibody) (antibody, mouse IgG2a, kappa, V domains shown)
VH: EVQLQQSGPELVKPGASVKISCKASGYTFTDYNMDWVKQSHGESLEWIGYIYPNNGGSGYNQKFKSKATLTVDKSSSTAYMELHSLTSEDSAVYYCARRDSYYGFDMAWFAYWGQGTLVTVSA
VL: DIQMTQSPASLSASVGETVTITCRPSENIYNNLAWYQQKQGKSPQLLVYVATNLAEGVPSRFSGSGSGTRFSLKINSLQPEDFGKYYCQHSYGTPWTFGGGTKLEIKR
notes: Complete antibody; Plain when immobilized; biotinylated (Biotin-AC5-Osu) when used as detection antibody; also called DF366m antibody
B1: the S/N ratio in assay [14] was 3.9; in [15] it was 1.1; in [16], 1.2; in [17], 0.9; in assay [18], 16.6; in assay [19], 92.2. The S/N ratio in [20] came out at 8.1; in assay [21], 1; in assay [22] it was 186; in assay [23] it was 80.4; in [24], 0.9; in [25], 2.3. Also, the S/N ratio was determined as 1.8 in assay [26], 140 in assay [27], 37.3 in assay [28] and 1 in assay [29].
